The text below walks through data of patent US20230107644A1.

Numbering of substitutions follows the chain as printed.

Test [1] addresses NA (N2) of influenza virus A/Wisconsin/67/2005 (influenza A virus A/Wisconsin/67/2005 (H3N2)).
Test [2] has as its target NA (N2) of influenza virus A/Brisbane/10/2007 (influenza A virus A/Brisbane/10/2007 (H3N2)).
For test [3], the target named is N2 A/shorebird/Delaware/127/1997 (Influenza A virus (A/shorebird/Delaware/127/1997)).
For test [4], the target named is HA (H3) of influenza virus A/Wisconsin/67/2005 (influenza A virus A/Wisconsin/67/2005 (H3N2)). Description: cell-based or functional assay.
Test [5] concerns the target HA (H3) of influenza virus A/Switzerland/9715283/2013 (influenza A virus A/Switzerland/9715283/2013 (H3N2)). Nature of the test: cell-based or functional assay.
The target of test [6] is HA (H3) of influenza virus A/Victoria/361/2011 (influenza A virus A/Victoria/361/2011 (H3N2)). Description: cell-based or functional assay.
Test [7] has as its target HA (H3) of influenza virus A/Brisbane/10/2007 (influenza A virus A/Brisbane/10/2007 (H3N2)). Description: cell-based or functional assay.
Test [8] has as its target HA (H3) of influenza virus A/Victoria/210/2009 (influenza A virus A/Victoria/210/2009 (H3N2)). Description: cell-based or functional assay.
For test [9], the target named is HA (H3) of influenza virus A/Uruguay/716/2007 (influenza A virus A/Uruguay/716/2007 (H3N2)). Description: cell-based or functional assay.
For test [10], the target named is HA (H3) of influenza virus A/Perth/16/2009 (influenza A virus A/Perth/16/2009 (H3N2)). Nature of the test: cell-based or functional assay.
For test [11], the target named is HA (H3) of influenza virus A/Texas/50/2012 (influenza A virus A/Texas/50/2012 (H3N2)). Nature of the test: cell-based or functional assay.
Test [12] addresses HA (H3) of influenza virus A/Wisconsin/67/2005 (influenza A virus A/Wisconsin/67/2005 (H3N2)).
For test [13], the target named is HA (H3) of influenza virus A/Brisbane/10/2007 (influenza A virus A/Brisbane/10/2007 (H3N2)).
The target of test [14] is H3 A/duck/Shantou/1283/2001 (Influenza A virus (A/duck/Shantou/1283/2001)).
In test [15] the target is HA (H3) of influenza virus A/Perth/16/2009 (influenza A virus A/Perth/16/2009 (H3N2)).
Test [16] addresses NA (N2) of influenza virus A/Wisconsin/67/2005 (influenza A virus A/Wisconsin/67/2005 (H3N2)). Description: cell-based or functional assay.
For test [17], the target named is NA (N2) of influenza virus A/Brisbane/10/2007 (influenza A virus A/Brisbane/10/2007 (H3N2)). Nature of the test: cell-based or functional assay.
The target in test [18] is NA (N2) of influenza virus A/Victoria/361/2011 (influenza A virus A/Victoria/361/2011 (H3N2)). Description: cell-based or functional assay.
The target in test [19] is NA (N2) of influenza virus A/Uruguay/716/2007 (influenza A virus A/Uruguay/716/2007 (H3N2)). Nature of the test: cell-based or functional assay.
Test [20] addresses NA (N2) of influenza virus A/Perth/16/2009 (influenza A virus A/Perth/16/2009 (H3N2)). Description: cell-based or functional assay.
The target of test [21] is NA (N2) of influenza virus A/Texas/50/2012 (influenza A virus A/Texas/50/2012 (H3N2)). Nature of the test: cell-based or functional assay.

B1: 1122B9 hmAb (antibody, V domains shown)
VH: EVQLVESGGGLVQPGGSLRLSCAASGFTFSGYAMSWVRQAPGKGLECVSGIIGSGGSTYSADSVKGRFTISRDNSKNTLDLEMNSLRAEDTAVYYCAKHTKSHYYSGMGVWGQGTTVTVSS
VL: DIQMTQSPSSLSASVGDRVTITCQASQDISNYLNWYQQRPGKAPKLLIYDAANLETGVPSRFSGSGSATQFTFTISGLQPEDFATYYCQQYDNLPLTFGGGTKVEIK
Consider B1, for which the ELISA area under curve (AUC) in test [1] is 35.3; in test [2], 35.2; in test [3], 25.2.

B2: 1092E4 hmAb (antibody, V domains shown)
VH: QVQLVQSGAEVKKPGASVKVSCKASGYSFTRYGISWVRQAPGQGLEWMGWISAYTGNTDYAQKFQGRITMTTDTSTSTVYMELRSLRSDDTAVYYCARDHPQGVVILGSYYYGMDVWGQGNTVTVSS
VL: EIVLTQSPGTLSLSPGERATLSCRASQSVTSRYLAWYQQKLGQAPRLLIYGASSRATGIPDRFSGSGSGTDFTLTISSLEPEDFAVYYCQQSGSPRTFGQGTKVEIK
In the case of B2, the NT50 in test [4] is 0.2 µg/mL; in test [5], 6.25 µg/mL; in test [6], 0.1 µg/mL; in [7] it was 0.1 µg/mL; in test [8] it was 6.25 µg/mL; in [9], 0.1 µg/mL. The results for the NT50 in test [10] and in test [11] were 3.13 µg/mL and 6.25 µg/mL, respectively. Further, the ELISA area under curve (AUC) stood at 32.5 in [12]; 18.5 with H1 protein; 31.7 in [13]; 26 in the test with H7 protein; 28.7 in test [14]; 33.4 in test [15].

B3: 1092C4 hmAb (antibody, V domains shown)
VH: B2 VH with Q1E, V79A, H100L
VL: B2 VL with F84L
Turning to B3, the NT50 in test [4] turned out to be 1.6 µg/mL; in test [5], 0.78 µg/mL; in test [6], 0.1 µg/mL; in test [7], 0.1 µg/mL; in test [8] it was 6.25 µg/mL; in test [9], 0.2 µg/mL. The NT50 in [10] was found to be 3.13 µg/mL; in test [11], 6.25 µg/mL. Moreover, the ELISA area under curve (AUC) in test [12] came to 33.7; in the test with H1 protein it was 9.8; in [13] it was 32.3; with H7 protein, 27.3; in test [14] it was 34.4; in test [15], 31.4.

B4: 1086G8 hmAb (antibody, V domains shown)
VH: EVQLLESGGGLVQPGGSLRLSCTASGFTFASDAMNWVRQAPGKGLEWVSAISGNGGITYFADSVKGRFTISRDNSKDTLYLQMDSLRAEDTAVYYCAKGVAPSHFNLLTGYYAGHYYFDFWGQGTLVTVSS
VL: EIVMTQSPATLSVSPGERATLSCRASQSVRHNLAWYQHKPGQPPRLLIYGASTRAASVPARFSGSGSGTDFTLTISSLQSEDFAVYYCQQYNHWPPYTFGQGTKLEIK
In the case of B4, the NT50 in test [4] is 3.13 µg/mL; in test [5], 12.5 µg/mL; in [6], 0.2 µg/mL; in test [7] it was 0.4 µg/mL; in test [8], 12.5 µg/mL; in test [9] it was 0.4 µg/mL. In addition, the NT50 in test [10] and in test [11] was 6.25 µg/mL in each case. For the same molecule, the ELISA area under curve (AUC) came out at 33.7 in test [12]; 11.4 in the test with H1 protein; 31.2 in test [13]; 25.2 with H7 protein; 31.4 in test [14]; 28 in [15].

B5: 1122A11 hmAb (antibody, V domains shown)
VH: QVQLVQSGAEVSKPGASVKVSCKASGYSFTSQSLGWVRQAPGQGLEWMGIINPSGGITNYAHKFQGRVTMTRDTSTSTVYMELSSLRSEDTALYYCVRDLSHYNEVGHDRAYYYGMDIWGQGTTVTVSS
VL: SYELIQPPSVSVSPGQTASITCSGDKLGKKYTCWYQQKPGQSPVLVIYQDNKRPSGIPERFSGSNSGNTATLTISGTQAMDEADYYCQAWDSSAVVFGGGTKLTVL
With B5, the values for the ELISA area under curve (AUC) in test [1], in [2] and in test [3] were 34.7, 35.8 and 15.2, respectively. The NT50 turned out to be 25 µg/mL in [16]; 6.25 µg/mL in test [17]; 1.6 µg/mL in test [18]; 0.2 µg/mL in test [19]; 0.2 µg/mL in test [20]; 3.13 µg/mL in test [21].
